Measured values reported in patent US20250339531A1, “DUX4 POLYPEPTIDES AND NUCLEIC ACIDS FOR TREATING INFLAMMATORY AND AUTOIMMUNE CONDITIONS” (Fred Hutchinson Cancer Center, priority 2021, published 2025).

B1: P12814 (protein, UniProt P12814 1-892, looked up)
chain: MDHYDSQQTNDYMQPEEDWDRDLLLDPAWEKQQRKTFTAWCNSHLRKAGTQIENIEEDFRDGLKLMLLLEVISGERLAKPERGKMRVHKISNVNKALDFIASKGVKLVSIGAEEIVDGNVKMTLGMIWTIILRFAIQDISVEETSAKEGLLLWCQRKTAPYKNVNIQNFHISWKDGLGFCALIHRHRPELIDYGKLRKDDPLTNLNTAFDVAEKYLDIPKMLDAEDIVGTARPDEKAIMTYVSSFYHAFSGAQKAETAANRICKVLAVNQENEQLMEDYEKLASDLLEWIRRTIPWLENRVPENTMHAMQQKLEDFRDYRRLHKPPKVQEKCQLEINFNTLQTKLRLSNRPAFMPSEGRMVSDINNAWGCLEQVEKGYEEWLLNEIRRLERLDHLAEKFRQKASIHEAWTDGKEAMLRQKDYETATLSEIKALLKKHEAFESDLAAHQDRVEQIAAIAQELNELDYYDSPSVNARCQKICDQWDNLGALTQKRREALERTEKLLETIDQLYLEYAKRAAPFNNWMEGAMEDLQDTFIVHTIEEIQGLTTAHEQFKATLPDADKERLAILGIHNEVSKIVQTYHVNMAGTNPYTTITPQEINGKWDHVRQLVPRRDQALTEEHARQQHNERLRKQFGAQANVIGPWIQTKMEEIGRISIEMHGTLEDQLSHLRQYEKSIVNYKPKIDQLEGDHQLIQEALIFDNKHTNYTMEHIRVGWEQLLTTIARTINEVENQILTRDAKGISQEQMNEFRASFNHFDRDHSGTLGPEEFKACLISLGYDIGNDPQGEAEFARIMSIVDPNRLGVVTFQAFIDFMSRETADTDTADQVMASFKILAGDKNYITMDELRRELPPDQAEYCIARMAPYTGPDSVPGALDYMSFSTALYGESDL
modifications: full-length
B2: Q07065 (protein, UniProt Q07065 1-602, looked up)
chain: MPSAKQRGSKGGHGAASPSEKGAHPSGGADDVAKKPPPAPQQPPPPPAPHPQQHPQQHPQNQAHGKGGHRGGGGGGGKSSSSSSASAAAAAAAASSSASCSRRLGRALNFLFYLALVAAAAFSGWCVHHVLEEVQQVRRSHQDFSRQREELGQGLQGVEQKVQSLQATFGTFESILRSSQHKQDLTEKAVKQGESEVSRISEVLQKLQNEILKDLSDGIHVVKDARERDFTSLENTVEERLTELTKSINDNIAIFTEVQKRSQKEINDMKAKVASLEESEGNKQDLKALKEAVKEIQTSAKSREWDMEALRSTLQTMESDIYTEVRELVSLKQEQQAFKEAADTERLALQALTEKLLRSEESVSRLPEEIRRLEEELRQLKSDSHGPKEDGGFRHSEAFEALQQKSQGLDSRLQHVEDGVLSMQVASARQTESLESLLSKSQEHEQRLAALQGRLEGLGSSEADQDGLASTVRSLGETQLVLYGDVEELKRSVGELPSTVESLQKVQEQVHTLLSQDQAQAARLPPQDFLDRLSSLDNLKASVSQVEADLKMLRTAVDSLVAYSVKIETNENNLESAKGLLDDLRNDLDRLFVKVEKIHEKV
modifications: full-length
B3: Q86YD1 (protein, UniProt Q86YD1 1-416, looked up)
chain: MVRPRRAPYRSGAGGPLGGRGRPPRPLVVRAVRSRSWPASPRGPQPPRIRARSAPPMEGARVFGALGPIGPSSPGLTLGGLAVSEHRLSNKLLAWSGVLEWQEKRRPYSDSTAKLKRTLPCQAYVNQGENLETDQWPQKLIMQLIPQQLLTTLGPLFRNSQLAQFHFTNRDCDSLKGLCRIMGNGFAGCMLFPHISPCEVRVLMLLYSSKKKIFMGLIPYDQSGFVSAIRQVITTRKQAVGPGGVNSGPVQIVNNKFLAWSGVMEWQEPRPEPNSRSKRWLPSHVYVNQGEILRTEQWPRKLYMQLIPQQLLTTLVPLFRNSRLVQFHFTKDLETLKSLCRIMDNGFAGCVHFSYKASCEIRVLMLLYSSEKKIFIGLIPHDQGNFVNGIRRVIANQQQVLQRNLEQEQQQRGMGG
modifications: full-length
B4: P17655 (protein, UniProt P17655 1-700, looked up)
chain: MAGIAAKLAKDREAAEGLGSHDRAIKYLNQDYEALRNECLEAGTLFQDPSFPAIPSALGFKELGPYSSKTRGIEWKRPTEICADPQFIIGGATRTDICQGALGDCWLLAAIASLTLNEEILARVVPLNQSFQENYAGIFHFQFWQYGEWVEVVVDDRLPTKDGELLFVHSAEGSEFWSALLEKAYAKINGCYEALSGGATTEGFEDFTGGIAEWYELKKPPPNLFKIIQKALQKGSLLGCSIDITSAADSEAITFQKLVKGHAYSVTGAEEVESNGSLQKLIRIRNPWGEVEWTGRWNDNCPSWNTIDPEERERLTRRHEDGEFWMSFSDFLRHYSRLEICNLTPDTLTSDTYKKWKLTKMDGNWRRGSTAGGCRNYPNTFWMNPQYLIKLEEEDEDEEDGESGCTFLVGLIQKHRRRQRKMGEDMHTIGFGIYEVPEELSGQTNIHLSKNFFLTNRARERSDTFINLREVLNRFKLPPGEYILVPSTFEPNKDGDFCIRVFSEKKADYQAVDDEIEANLEEFDISEDDIDDGFRRLFAQLAGEDAEISAFELQTILRRVLAKRQDIKSDGFSIETCKIMVDMLDSDGSGKLGLKEFYILWTKIQKYQKIYREIDVDRSGTMNSYEMRKALEEAGFKMPCQLHQVIVARFADDQLIIDFDNFVRCLVRLETLFKIFKQLDPENTGTIELDLISWLCFSVL
modifications: full-length
B5: P51784 (protein, UniProt P51784 1-963, looked up)
chain: MAVAPRLFGGLCFRFRDQNPEVAVEGRLPISHSCVGCRRERTAMATVAANPAAAAAAVAAAAAVTEDREPQHEELPGLDSQWRQIENGESGRERPLRAGESWFLVEKHWYKQWEAYVQGGDQDSSTFPGCINNATLFQDEINWRLKEGLVEGEDYVLLPAAAWHYLVSWYGLEHGQPPIERKVIELPNIQKVEVYPVELLLVRHNDLGKSHTVQFSHTDSIGLVLRTARERFLVEPQEDTRLWAKNSEGSLDRLYDTHITVLDAALETGQLIIMETRKKDGTWPSAQLHVMNNNMSEEDEDFKGQPGICGLTNLGNTCFMNSALQCLSNVPQLTEYFLNNCYLEELNFRNPLGMKGEIAEAYADLVKQAWSGHHRSIVPHVFKNKVGHFASQFLGYQQHDSQELLSFLLDGLHEDLNRVKKKEYVELCDAAGRPDQEVAQEAWQNHKRRNDSVIVDTFHGLFKSTLVCPDCGNVSVTFDPFCYLSVPLPISHKRVLEVFFIPMDPRRKPEQHRLVVPKKGKISDLCVALSKHTGISPERMMVADVFSHRFYKLYQLEEPLSSILDRDDIFVYEVSGRIEAIEGSREDIVVPVYLRERTPARDYNNSYYGLMLFGHPLLVSVPRDRFTWEGLYNVLMYRLSRYVTKPNSDDEDDGDEKEDDEEDKDDVPGPSTGGSLRDPEPEQAGPSSGVTNRCPFLLDNCLGTSQWPPRRRRKQLFTLQTVNSNGTSDRTTSPEEVHAQPYIAIDWEPEMKKRYYDEVEAEGYVKHDCVGYVMKKAPVRLQECIELFTTVETLEKENPWYCPSCKQHQLATKKLDLWMLPEILIIHLKRFSYTKFSREKLDTLVEFPIRDLDFSEFVIQPQNESNPELYKYDLIAVSNHYGGMRDGHYTTFACNKDSGQWHYFDDNSVSPVNENQIESKAAYVLFYQRQDVARRLLSPAGSSGAPASPACSSPPSSEFMDVN
modifications: full-length

System: proteins that co-immunoprecipitated with DUX4-CTD constructs expressed in MB135 myoblasts
Assay: LC-MS of proteins co-immunoprecipitated with DUX4-CTD (Table 1) and western validation
Assay type: binding, human
Design: key to 4. mL1dL2 + Dox + IFNG / 4. + IFNG mix / 4. longCTD + Dox + IFNG / 3. + IFNg + Dox longCTD / 3. + Dox longCTD / 3. + IFNG longCTD: peptide-spectrum matches (PSMs) per protein
Details: for 4. longCTD + Dox + IFNG: LC-MS counts of the listed protein co-immunoprecipitated with DUX4-CTD bait longCTD, experiment 4, Dox + IFNG; for 3. + Dox longCTD: experiment 3, Dox only; for 3. + IFNg + Dox longCTD: experiment 3, IFNg + Dox; for SUM of PSMS: sum over all samples
Procedure, shortened: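 FLAG-tagged DUX4-CTD expressed in doxycycline-induced MB135 myoblasts, some also IFNG-treated; nuclear lysates in pH 7.4 NP-40 IP buffer were pre-cleared, then anti-FLAG immunoprecipitated 3 h at 4 °C. For LC-MS, FLAG-peptide elution, in-gel trypsin digest, Orbitrap analysis; proteins with ≥2 PSMs in both experiments categorised and ranked by total PSMs.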

| Molecule | 4. longCTD + Dox + IFNG | 3. + Dox longCTD (bait longCTD) | 3. + IFNg + Dox longCTD (bait longCTD) | SUM of PSMS | 3. + IFNG longCTD (bait longCTD, experiment 3, IFNG only, no doxycycline (bait at background level)) |
| --- | --- | --- | --- | --- | --- |
| B1 | 34 | 4 | 13 | 82 | – |
| B2 | 13 | 30 | 62 | 152 | 4 |
| B3 | 2 | 2 | – | 4 | – |
| B4 | 3 | – | 1 | 4 | – |
| B5 | 2 | – | 1 | 4 | – |
